Measurements as given in publication PMC10146092, “Highly Sensitive β-Lactoglobulin Fluorescent Aptamer Biosensors Based on Tungsten Disulfide Nanosheets and DNase I-Assisted Signal Amplification”.

Experiments:
[1] = target: T1, beta-lactoglobulin (β-Lg) (Bos taurus (cow's milk)?, UniProt P02754 17-178); assay: fluorescence recovery on WS2 nanosheets, DNase I amplified; DNase I; β-Lg 0.1-100 ug/mL; little fluorescence change, independent of β-Lg; 200 nM FAM-aptamer, 750 ug/mL WS2 (10 min, room temperature), then β-Lg with 0.04 U/uL DNase I, 40 min at 37 °C; ex 490/em 518 nm; buffer, salt and pH not given in the material; settings: protein: commercial; chain copies: 2; label: 5'-FAM
T1 sequence: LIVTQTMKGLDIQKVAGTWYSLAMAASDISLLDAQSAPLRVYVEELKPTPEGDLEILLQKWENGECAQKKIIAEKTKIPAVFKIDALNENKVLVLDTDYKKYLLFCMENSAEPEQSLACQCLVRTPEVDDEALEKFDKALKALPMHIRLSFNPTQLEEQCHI

ovalbumin = ovalbumin (UniProt P01012 2-386); assay: fluorescence recovery on WS2 nanosheets; 10 ug/mL protein; no significant recovery; 200 nM FAM-aptamer, 750 ug/mL WS2 (10 min, room temperature), then β-Lg with 0.04 U/uL DNase I, 40 min at 37 °C; ex 490/em 518 nm; buffer, salt and pH not given in the material; settings: protein: commercial; label: 5'-FAM
Chain of ovalbumin (P01012 2-386): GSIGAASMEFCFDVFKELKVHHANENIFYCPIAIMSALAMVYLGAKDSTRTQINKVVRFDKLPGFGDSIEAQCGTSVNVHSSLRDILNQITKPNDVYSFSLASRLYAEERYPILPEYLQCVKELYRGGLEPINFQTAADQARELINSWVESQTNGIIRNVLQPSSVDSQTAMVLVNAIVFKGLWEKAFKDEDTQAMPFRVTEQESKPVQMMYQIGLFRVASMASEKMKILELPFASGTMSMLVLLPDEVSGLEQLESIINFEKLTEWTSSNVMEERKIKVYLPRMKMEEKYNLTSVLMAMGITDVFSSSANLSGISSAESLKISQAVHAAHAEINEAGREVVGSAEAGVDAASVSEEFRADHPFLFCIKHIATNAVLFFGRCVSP

[2] = target: T1, beta-lactoglobulin (β-Lg); assay: fluorescence recovery on WS2 nanosheets (FRET quenching); no DNase I; WS2 nanosheets; LOD 35 ng/mL; 200 nM FAM-aptamer, 750 ug/mL WS2 (10 min, room temperature), then β-Lg with 0.04 U/uL DNase I, 40 min at 37 °C; ex 490/em 518 nm; buffer, salt and pH not given in the material; settings: protein: commercial; chain copies: 2; label: 5'-FAM

B1: negative control DNA sequence (ssDNA)
DNA: CTAAGTCTGAAACATTACAGCTTGCTACACGAGAAGAGCCGCACGAGAACCCT
- binding result [1]: no binding

B2: β-Lg aptamer (ssDNA)
DNA: CGACGATCGGACCGCAGTACCCACAGCCCCAACATCATGCCCATCCGTGTGTG
- binding result (ovalbumin): no binding
- binding result [2]: binds
